The values that follow come from article PMC4695161, “Multifaceted interactions and regulation between antizyme and its interacting proteins cyclin D1, ornithine decarboxylase and antizyme inhibitor” (Oncotarget, 2015).

First the molecules themselves.
B2: human antizyme (AZ), wild type (natural protein)
chain: not shown
notes: antizyme (AZ), human; Natural AZ needs a +1 frameshift for translation; also called AZWT; full-length AZ; source: E. coli JM109 (pQE30), purified (Ni-NTA)

Common to all, as to settings: both partners purified
Assay [1] deals with T1, human cyclin D1 (CCND1) (human, UniProt P24385 1-295).
T1 construct: cyclin D1 (CCND1), human; source: E. coli JM109 (pQE30), purified (Ni-NTA)
As to the kind of experiment: AUC; sedimentation velocity; AZ or AZ peptide at a fixed concentration, three concentrations of CCND1; 30 mM Tris-HCl pH 7.4, 50 mM NaCl; global fit (SEDPHAT) to A+B↔AB hetero-association.

Assay [2] addresses B2. In words: AUC; sedimentation velocity, size distribution of mixtures at molar ratio AZ/CCND1 of 1; 30 mM Tris-HCl pH 7.4, 50 mM NaCl, 20°C; no constant fitted.
For assay [3], the target named is T2, pre-formed AZ-CCND1 complex (human, UniProt P54368 1-228; P24385 1-295).
T2 construct: antizyme (AZ), human, as m1; cyclin D1 (CCND1), human, as m2; Molar ratio AZ/CCND1 fixed at 1; also called CCND1-AZ complex; source: AZ pre-incubated with CCND1 for 1 hour (purified recombinant proteins)
As to the kind of experiment: AUC; sedimentation velocity; AZ pre-incubated 1 hour with ODC (or CCND1) at molar ratio 1, then the third protein (CCND1 or ODC) at varied concentration; 30 mM Tris-HCl pH 7.4, 50 mM NaCl, 20°C.

T1 sequence (P24385 whole entry): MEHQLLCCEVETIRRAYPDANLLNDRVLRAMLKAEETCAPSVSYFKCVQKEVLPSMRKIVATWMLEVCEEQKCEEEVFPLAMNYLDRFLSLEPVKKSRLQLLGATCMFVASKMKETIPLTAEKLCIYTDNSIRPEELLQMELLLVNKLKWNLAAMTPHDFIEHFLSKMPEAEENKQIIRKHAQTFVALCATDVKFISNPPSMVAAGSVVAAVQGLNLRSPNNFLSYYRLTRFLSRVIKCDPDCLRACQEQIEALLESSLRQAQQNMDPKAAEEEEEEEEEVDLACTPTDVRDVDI
T2 sequence (P54368 whole entry, chain 1 of 2): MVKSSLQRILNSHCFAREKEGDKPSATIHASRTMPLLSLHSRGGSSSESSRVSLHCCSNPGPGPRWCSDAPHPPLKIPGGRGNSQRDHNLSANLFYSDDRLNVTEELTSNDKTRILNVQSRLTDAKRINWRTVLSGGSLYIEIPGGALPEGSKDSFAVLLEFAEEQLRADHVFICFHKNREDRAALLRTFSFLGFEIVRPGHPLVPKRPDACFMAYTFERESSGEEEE
T2 sequence (P24385 whole entry, chain 2 of 2): as the sequence (P24385 whole entry) above

B1: N-terminal AZ peptide AZ(34-124) (domain or fragment)
chain: not shown
notes: also called AZ N-terminal peptide; source: truncated by deletion mutagenesis of the human AZ plasmid
Take B1: in assay [1], the Kd (in general, the equilibrium constant for the complex coming apart) was 870 ± 10 nM.

As to B2, binding in assay [1] was put at a Kd of 810 ± 20 nM.

B3: N-terminal CCND1 peptide CCND1(21-154) (domain or fragment, human, UniProt P24385 21-154, looked up)
chain: NLLNDRVLRAMLKAEETCAPSVSYFKCVQKEVLPSMRKIVATWMLEVCEEQKCEEEVFPLAMNYLDRFLSLEPVKKSRLQLLGATCMFVASKMKETIPLTAEKLCIYTDNSIRPEELLQMELLLVNKLKWNLAA
notes: source: truncated by deletion mutagenesis of the human CCND1 plasmid
On to B3, for which the binding result in assay [2] is “binds”.

B4: human ornithine decarboxylase (ODC) (enzyme, UniProt P11926 1-461, looked up)
chain: MNNFGNEEFDCHFLDEGFTAKDILDQKINEVSSSDDKDAFYVADLGDILKKHLRWLKALPRVTPFYAVKCNDSKAIVKTLAATGTGFDCASKTEIQLVQSLGVPPERIIYANPCKQVSQIKYAANNGVQMMTFDSEVELMKVARAHPKAKLVLRIATDDSKAVCRLSVKFGATLRTSRLLLERAKELNIDVVGVSFHVGSGCTDPETFVQAISDARCVFDMGAEVGFSMYLLDIGGGFPGSEDVKLKFEEITGVINPALDKYFPSDSGVRIIAEPGRYYVASAFTLAVNIIAKKIVLKEQTGSDDEDESSEQTFMYYVNDGVYGSFNCILYDHAHVKPLLQKRPKPDEKYYSSSIWGPTCDGLDRIVERCDLPEMHVGDWMLFENMGAYTVAAASTFNGFQRPTIYYVMSGPAWQLMQQFQNPDFPPEVEEQDASTLPVSCAWESGMKRHRAACASASINV
notes: ornithine decarboxylase (ODC), human; source: purified recombinant; expression not described
On to B4, for which the Kd in assay [3] was found to be 1260 ± 20 nM.
